From PMC9871250, “Identification of an indole biodegradation gene cluster from Providencia rettgeri and its contribution in selectively biosynthesizing Tyrian purple” (Frontiers in Bioengineering and Biotechnology, 2023) come the findings set out here.

Substrate in series [1]: Brc1ccc2cc[nH]c2c1
Nature of the series: Tyrian purple formation by LC-MS. The format is biochemical, Methylophaga thalassica. As to conditions: pH 7.5, 30 °C, 250 μM NADH, 0.6% glucose with GDH recycling, unit μm [sic], meant μM, table title says NADH oxidation, methods say indigo/Tyrian purple formation. The source says: Tyrian purple formation by LC-MS on MaFMO

Substrate in series [2]: c1ccc2[nH]ccc2c1
Nature of the series: indigo formation by LC-MS. The format is biochemical, Methylophaga thalassica. Conditions: pH 7.5, 30 °C, 250 μM NADH, 0.6% glucose with GDH recycling, unit μm [sic], meant μM, table title says NADH oxidation, methods say indigo/Tyrian purple formation. The source says:
indigo formation by LC-MS on MaFMO

B1: MaFMO (Methylophaga thalassica) (protein)
chain: MATRIAILGAGPSGMAQLRAFQSAQEKGAEIPELVCFEKQADWGGQWNYTWRTGLDENGEPVHSSMYRYLWSNGPKECLEFADYTFDEHFGKPIASYPPREVLWDYIKGRVEKAGVRKYIRFNTAVRHVEFNEDSQTFTVTVQDHTTDTIYSEEFDYVVCCTGHFSTPYVPEFEGFEKFGGRILHAHDFRDALEFKDKTVLLVGSSYSAEDIGSQCYKYGAKKLISCYRTAPMGYKWPENWDERPNLVRVDTENAYFADGSSEKVDAIILCTGYIHHFPFLNDDLRLVTNNRLWPLNLYKGVVWEDNPKFFYIGMQDQWYSFNMFDAQAWYARDVIMGRLPLPSKEEMKADSMAWREKELTLVTAEEMYTYQGDYIQNLIDMTDYPSFDIPATNKTFLEWKHHKKENIMTFRDHSYRSLMTGTMAPKHHTPWIDALDDSLEAYLSDKSEIPVAKEA
notes: synthesized gene, His-tag, E. coli BL21(DE3), Ni-NTA; primers give start MATRIAI, end VAKEA
The Km is the substrate concentration at which the rate is half of its maximum. The kcat is the number of substrate molecules converted per active site and unit of time at saturation. In general, kcat/Km refers to the turnover number divided by the Michaelis constant. Turning to B1, in series [1], the Km was determined as 303.65 µM, the kcat came out at 0.000521 s⁻¹ and the kcat/Km worked out at 1.67 M⁻¹ s⁻¹. Further, in series [2], the Km was 242.2 µM, the kcat worked out at 0.000246 s⁻¹ and the kcat/Km stood at 1 M⁻¹ s⁻¹.
